The text below walks through data of paper PMC9419707 (Nature, 2022).

This experiment concerns the target T1, His6–GFP–POU2F3 (UniProt Q9UKI9 1-436).
T1 sequence (looked up): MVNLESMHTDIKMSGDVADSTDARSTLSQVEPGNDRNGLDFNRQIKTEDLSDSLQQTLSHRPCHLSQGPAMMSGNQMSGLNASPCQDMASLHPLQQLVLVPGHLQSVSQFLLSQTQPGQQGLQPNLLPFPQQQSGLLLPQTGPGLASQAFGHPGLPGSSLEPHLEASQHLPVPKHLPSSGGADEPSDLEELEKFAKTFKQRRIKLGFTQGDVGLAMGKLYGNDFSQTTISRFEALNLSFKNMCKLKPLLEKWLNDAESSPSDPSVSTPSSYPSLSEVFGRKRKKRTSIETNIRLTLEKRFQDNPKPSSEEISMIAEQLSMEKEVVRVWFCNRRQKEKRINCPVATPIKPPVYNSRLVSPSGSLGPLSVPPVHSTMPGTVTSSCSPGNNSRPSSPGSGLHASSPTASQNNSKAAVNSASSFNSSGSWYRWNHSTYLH
Put plainly: SEC.

B1: Strep2SUMO–OCA-B (natural protein, UniProt Q16633 1-256, looked up)
chain: MLWQKPTAPEQAPAPARPYQGVRVKEPVKELLRRKRGHASSGAAPAPTAVVLPHQPLATYTTVGPSCLDMEGSVSAVTEEAALCAGWLSQPTPATLQPLAPWTPYTEYVPHEAVSCPYSADMYVQPVCPSYTVVGPSSVLTYASPPLITNVTTRSSATPAVGPPLEGPEHQAPLTYFPWPQPLSTLPTSTLQYQPPAPALPGPQFVQLPISIPEPVLQDMEDPRRAASSLTIDKLLLEEEDSDAYALNHTLSVEGF
B1: the binding result was “binds”.
